Results as given in patent US20110282030A1 (MAYO FOUNDATION FOR MEDICAL EDUCATION AND RESEARCH, published 2011).
Where no end group is shown, it is not given here.

T1: human NPR-A (human, UniProt P16066 33-1061)
T1 construct: whole, on cells; also called hNPR-A; hNPRA
T1 sequence: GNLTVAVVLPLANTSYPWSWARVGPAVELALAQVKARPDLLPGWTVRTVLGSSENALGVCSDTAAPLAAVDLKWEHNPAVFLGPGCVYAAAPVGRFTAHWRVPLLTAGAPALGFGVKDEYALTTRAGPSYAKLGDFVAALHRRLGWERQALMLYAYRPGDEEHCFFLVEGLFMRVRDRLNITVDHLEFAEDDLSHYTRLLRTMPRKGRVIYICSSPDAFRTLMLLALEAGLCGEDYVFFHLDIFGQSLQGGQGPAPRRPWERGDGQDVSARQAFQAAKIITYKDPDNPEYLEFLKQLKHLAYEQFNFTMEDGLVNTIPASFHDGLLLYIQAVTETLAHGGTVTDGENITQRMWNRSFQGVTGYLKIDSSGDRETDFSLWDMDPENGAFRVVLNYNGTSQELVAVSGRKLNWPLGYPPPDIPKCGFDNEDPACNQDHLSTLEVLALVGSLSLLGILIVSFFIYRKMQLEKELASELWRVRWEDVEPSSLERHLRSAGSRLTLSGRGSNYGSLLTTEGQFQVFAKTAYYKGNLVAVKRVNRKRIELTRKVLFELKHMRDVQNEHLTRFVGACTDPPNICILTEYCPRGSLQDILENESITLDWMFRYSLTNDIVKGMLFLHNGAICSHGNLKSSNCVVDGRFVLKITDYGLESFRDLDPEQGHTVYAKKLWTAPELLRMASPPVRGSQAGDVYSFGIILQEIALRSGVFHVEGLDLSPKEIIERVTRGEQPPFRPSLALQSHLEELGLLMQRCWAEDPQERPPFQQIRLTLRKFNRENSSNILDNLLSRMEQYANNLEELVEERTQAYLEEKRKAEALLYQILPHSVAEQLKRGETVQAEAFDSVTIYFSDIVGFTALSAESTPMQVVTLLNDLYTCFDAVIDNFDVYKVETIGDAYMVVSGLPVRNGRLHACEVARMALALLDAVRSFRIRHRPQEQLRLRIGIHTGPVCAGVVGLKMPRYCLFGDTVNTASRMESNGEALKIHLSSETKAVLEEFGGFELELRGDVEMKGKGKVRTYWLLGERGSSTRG

T2: human NPR-C (human, UniProt P17342 27-541)
T2 construct: whole, on cells; also called clearance receptor
T2 sequence: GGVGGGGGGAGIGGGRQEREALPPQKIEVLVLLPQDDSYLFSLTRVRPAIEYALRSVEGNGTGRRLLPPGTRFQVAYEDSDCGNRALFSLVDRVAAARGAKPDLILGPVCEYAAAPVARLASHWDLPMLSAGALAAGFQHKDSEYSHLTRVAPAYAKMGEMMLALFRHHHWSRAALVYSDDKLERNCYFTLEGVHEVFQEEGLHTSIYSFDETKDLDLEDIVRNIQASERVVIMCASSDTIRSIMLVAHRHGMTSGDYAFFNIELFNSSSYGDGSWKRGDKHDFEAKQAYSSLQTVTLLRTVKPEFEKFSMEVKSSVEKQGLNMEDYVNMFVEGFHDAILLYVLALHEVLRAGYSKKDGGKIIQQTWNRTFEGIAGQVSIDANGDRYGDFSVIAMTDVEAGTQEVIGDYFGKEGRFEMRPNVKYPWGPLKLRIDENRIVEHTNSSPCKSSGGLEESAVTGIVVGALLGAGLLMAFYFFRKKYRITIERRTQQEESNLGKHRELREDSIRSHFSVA

T3: human NPR-B (human, UniProt P20594 23-1047)
T3 sequence: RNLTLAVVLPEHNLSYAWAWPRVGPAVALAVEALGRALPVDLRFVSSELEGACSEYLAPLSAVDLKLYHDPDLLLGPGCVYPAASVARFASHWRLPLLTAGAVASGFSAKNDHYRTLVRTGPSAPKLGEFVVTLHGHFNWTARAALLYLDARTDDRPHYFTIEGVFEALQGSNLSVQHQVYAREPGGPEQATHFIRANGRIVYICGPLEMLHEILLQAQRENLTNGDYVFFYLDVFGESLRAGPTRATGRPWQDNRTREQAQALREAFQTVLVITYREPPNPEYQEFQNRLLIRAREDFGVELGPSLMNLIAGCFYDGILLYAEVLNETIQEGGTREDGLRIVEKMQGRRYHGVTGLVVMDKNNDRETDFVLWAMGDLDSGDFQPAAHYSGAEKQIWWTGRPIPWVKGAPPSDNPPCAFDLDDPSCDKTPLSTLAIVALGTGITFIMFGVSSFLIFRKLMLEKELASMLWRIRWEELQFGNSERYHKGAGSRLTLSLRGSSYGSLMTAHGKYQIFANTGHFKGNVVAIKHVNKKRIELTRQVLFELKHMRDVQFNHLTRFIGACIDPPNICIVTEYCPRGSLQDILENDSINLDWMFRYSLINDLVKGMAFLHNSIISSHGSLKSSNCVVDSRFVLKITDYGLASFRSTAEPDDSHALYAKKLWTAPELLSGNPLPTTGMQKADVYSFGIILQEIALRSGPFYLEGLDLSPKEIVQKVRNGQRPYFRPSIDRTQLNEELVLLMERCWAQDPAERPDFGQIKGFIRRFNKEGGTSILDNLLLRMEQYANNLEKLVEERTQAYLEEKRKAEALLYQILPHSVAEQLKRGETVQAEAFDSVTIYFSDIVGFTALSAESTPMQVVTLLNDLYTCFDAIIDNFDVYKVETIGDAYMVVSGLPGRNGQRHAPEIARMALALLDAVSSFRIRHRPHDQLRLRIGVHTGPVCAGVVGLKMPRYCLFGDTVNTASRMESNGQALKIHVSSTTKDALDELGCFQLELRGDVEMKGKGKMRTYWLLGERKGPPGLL


What was measured:
human NPR-A [1] = molecular target: T1, human NPR-A; test: competition ^125I-ANP binding on whole 293 cells expressing hNPR-A
human NPR-C = molecular target: T2, human NPR-C; test: displacement of ^125I-ANP from NPR-C
human NPR-B = molecular target: T3, human NPR-B; test: cell-based or functional assay
human NPR-A [2] = molecular target: T1, human NPR-A; test: not told; no binding experiment of DNP on NPR-A is described

Row | Binder | binding result (human NPR-A [1]) | binding result (human NPR-C) | EC50, cellular cGMP elevation in 293 cells expressing hNPR-B (human NPR-B) [nM] | binding result (human NPR-A [2])
1 | GLSKGCFGLKLDRIGSMSGLGC (ligand) [Human CNP] | no binding (tested: 10 µM) | binds | 38 | 
2 | EVKYDPCFGHKIDRINHVSNLGCPSLRDPRPNAPSTSA (ligand, ends and bridges not checked; cysteine pairing not given here, also called snake DNP polypeptide) [DNP] |  |  |  | binds
3 | SLRRSSCFGGRMDRIGAQSGLGCNSFRY (ligand) [Human ANP] |  | binds |  | 
